{
  "source": "the nanobody polyreactivity screen of Harvey et al. (2022)",
  "data": [
    {"experiment": "yeast display, Sf9 membrane polyspecificity reagent, FACS + sequencing; frameworks hold sequencing errors", "how_it_was_run": "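Polyreactivity labels are assigned by the sorting gate from which each nanobody was recovered. The gates were low and high (top ~1%), set on anti-HA fluorescence for expression and streptavidin fluorescence for reagent binding. Before sorting, galactose-induced (36–48 hours) yeast display cells were stained for 1 hour at 4 °C with 10% biotinylated, detergent-solubilized Sf9 membrane reagent.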", "values": [
      {"sequence": "HVQLVESGGGLVQAGGSLRLSCAASGSTFSSYAMGWYRQAPGQERELVAAITGGGANTYYADSVKGRFTISRDNAKNTVYLQMNSLKPEDTAVYYCNARSGYLHSKWTGYYWGQGTQVTVSS", "polyreactivity (PSR sort gate)": "low polyreactivity"},
      {"sequence": "QVQLEESGGGLVQAGGSLRLSCAASGRIFKGYAMGWYRQATGKETEVVAAISSRGGNTYYADSVKGRFTISRDNAKNTVYLQMNSLKPVDTAVYYCAAVYKWSRYGGYNYWGQGTQVTVSS", "polyreactivity (PSR sort gate)": "low polyreactivity"},
      {"sequence": "QVQLVESGGGLVQAGGSLRLSCAASGRSLRGYAMGWYREAPGNEWVFVAAISSRGGSTYYADSVKGRLTLSRDNAKNTVYVQMNSLKPEDSAVYYCAAQWGRWYYGFNYRGQGTQVTVSS", "polyreactivity (PSR sort gate)": "high polyreactivity"},
      {"sequence": "QVQLVESGGGLVHAGGSLRLSCAASGFIFSYNARGWYRQAPGKERELVASISRADSTNYADSVKGRFTISRDNAKNTVYLQMNSLKPEDTAVYYCAAAYWPVVWFYYWGQGTQVTVSS", "polyreactivity (PSR sort gate)": "low polyreactivity"},
      {"sequence": "QVQHVESGAGLVQAGGSLRLSCAASGNTFTWYTRGWSRQAPGKERELVAVITSDGATYYADSVKGRFTISRDNAKNTVYLQMNSLKPEDTAVYYCNALSAEWYPEEDYWGQGTQVTVSS", "polyreactivity (PSR sort gate)": "low polyreactivity"},
      {"sequence": "QVHLVESGGGLVQAGGSLRLSCAASGFTFRYNAMGWYRQAPGKERELVAAISWSGGSTYYADSVKGRFTISRDNAKNTVYLQMNSLKPEDTAVYYCNVGWGRVYKSRYDYWGQGTQVTVSS", "polyreactivity (PSR sort gate)": "high polyreactivity"},
      {"sequence": "QVQLVESGGGLVQSGGSLRLICAASGSTFGRYPMGWYRQAPGKERELVARISSGGSTTYADSVKGRFTISRDNAKNTVYFLRNSLKTEETAVYYSAADTPYWRYDYWGQGTQVTVSS", "polyreactivity (PSR sort gate)": "high polyreactivity"},
      {"sequence": "QVQLVESGGGLVQAGGSLRLSCAASGIFDYYVMGWYIQAPGKERELVAAISKSVGSTYYADSVKGRFTISRDNAKNTVYLQMNSLKPEDTAVYYCAVENRYRFGYWGQGTQVTVSS", "polyreactivity (PSR sort gate)": "low polyreactivity"},
      {"sequence": "QVQLVESGGGLGQAGGSLRLSCAASGFIFGLNAMGWYRQAPGKERELVAAISSIGGSTYYADSVKGRFTISRDNAMNTVYLQMNSLIPEDTAVYYCAKRYGGRRSWYDYWGQGSQVTVSS", "polyreactivity (PSR sort gate)": "high polyreactivity"},
      {"sequence": "QVQLVESVGGLVQAGGSLRLSCAASGRTFYHYAMGWYRQAPGKERELVAAITWSGGSTYYADSVKGRFTISRDNAKNTVYLQMNSLKPEDTAVYYCAAAYRPWRGGYYPVGYYYWGQGTQVTVSS", "polyreactivity (PSR sort gate)": "high polyreactivity"},
      {"sequence": "QVQLVESGGGLVQAGGSLRLSCAASGLTFFGYAMGWYRQAPGKERELVAPISSSGTRTYYADSVKGRFTISRDNAKNTVYLQMNSLKPEDTAVYYCATVRYQEYDYWGQGTQVTVSS", "polyreactivity (PSR sort gate)": "high polyreactivity"},
      {"sequence": "QVQLVESGGGLVQAGGSLRLSCAASVRTFGFNVMGWYRQAPGKERELVAAISWSGGSTYYADSVKGRFTISRDNAKNTVYLQMNSLKPEVTAVYYCNKRYVHRYGYWGQGTQVTVSS", "polyreactivity (PSR sort gate)": "low polyreactivity"},
      {"sequence": "QVQLVESGGGLVQAGGSLRLSCAATGSIFGDNAMGWYRQAPGKARELVAAITSSGGSTYYADSVKGRFTISRDNAKNTVYLQMNSLKPEDTAVYYCNADFGYGWYLRYDYWGQGSQVTVSS", "polyreactivity (PSR sort gate)": "high polyreactivity"},
      {"sequence": "QVQLVESGVGIVQAGGSHRLSCAASGRICVRNAMGWYRQAPGKERQLVAAISWSGGTNYADSVKGRFTISRDNAKNTVYLQMNSLKPEDTAVYYCAALSVWSYYTYYYWGQGTQVTVSS", "polyreactivity (PSR sort gate)": "high polyreactivity"},
      {"sequence": "QVHLVESGGGLVQAGGSLRLSCADSGRTFGTYAMGWYRQAPGKERELVAAISSGGSTYADSVKGRFTISRDNAKNTVYLQMNSLKPVDTAVYYCNADFSARNYHYYPRRFKYYYWGQGTQVTVSS", "polyreactivity (PSR sort gate)": "high polyreactivity"},
      {"sequence": "QVQLVESGGVLVQAGGSLRLSCAASGYIFNKYVMGWYRPAPGKERELVAAISASGGSTYYADSVKGRFTLSRDNAKNTVYLQMNSLKPEDTAVYYCAATLYRRMDYWGQGTQVTVSS", "polyreactivity (PSR sort gate)": "high polyreactivity"},
      {"sequence": "QVQLVESGGGLVQAGGSLRLSCAASGSTFSTNAMGWYRQAPGKERELVASITRSGGSTYYADSVKGRFTISRDNAKNTVYLQMNSLKPEDTAVYYCNADGYYDYDYGYWGQGTQVTVSS", "polyreactivity (PSR sort gate)": "low polyreactivity"}
    ]}
  ]
}
